Experimental data: patent US20060020109A1 (Harvard, published 2006)

Biological target: T1, soluble recombinant HLA-DR2 molecules (MHC class II HLA-DR2 protein) (human)
T1 construct: Soluble, empty protein from Drosophila S2 cells, captured on plates by antibody LB3.1; also called MHC class II DR2 protein; recombinant HLA-DR2 protein
Assay: competition ELISA on soluble HLA-DR2; competitor biotinylated Cop 1 (1.5 µM)

Row | Binder | IC50
1 | AAEKYAAYAAAAAAA [synthetic peptide #55] | > 1000 µM
2 | AKKEYAAAAAAAAAA [synthetic peptide #37] | > 1000 µM
3 | AKEEYAAAAAAAAAA [synthetic peptide #38] | > 1000 µM
4 | AKEAYAAAAAAAAAA [synthetic peptide #39] | > 1000 µM
5 | AEKEYAAAAAAAAAA [synthetic peptide #40] | > 1000 µM
6 | EKKAYAAAAAAAAAA [synthetic peptide #41] | > 1000 µM
7 | EKAAYAAAAAAAAAA [synthetic peptide #44] | > 1000 µM
8 | EKEAAAAYAAAAAAA [synthetic peptide #46] | > 1000 µM
9 | KEKAAAAYAAAAAAA [synthetic peptide #47] | > 1000 µM
10 | AKAEAAAYAAAAAAA [synthetic peptide #48] | > 1000 µM
11 | AEKAAAAYAAAAAAA [synthetic peptide #49] | > 1000 µM
12 | AEKKYAAYAAAAAAA [synthetic peptide #54] | > 1000 µM
13 | AEEKYAAYAAAAAAA [synthetic peptide #56] | > 1000 µM
14 | AKEAYAAYAAAAAAA [synthetic peptide #57] | > 1000 µM
15 | AAKEYAAYAAAAAAA [synthetic peptide #58] | > 1000 µM
16 | AKAEYAAYAAAAAAA [synthetic peptide #59] | > 1000 µM
17 | AEAKYAAYAAAAAAA [synthetic peptide #60] | > 1000 µM
18 | AKEEYAAYAAAAAAA [synthetic peptide #62] | > 1000 µM
19 | AKEKYAAYAAAAAAA [synthetic peptide #63] | > 1000 µM

Row | Binder | IC50
20 | AAKAYEAYAAAAAAA [synthetic peptide #65] | > 1000 µM
21 | AEAKYEAYAAAAAAA [synthetic peptide #67] | > 1000 µM
22 | AAKKYEAYAAAAAAA [synthetic peptide #68] | > 1000 µM
23 | AAEKYEAYAAAAAAA [synthetic peptide #69] | > 1000 µM
24 | EAEKYAAYAAAAAAA [synthetic peptide #71] | > 1000 µM
25 | EKAEYAAYAAAAAAA [synthetic peptide #72] | > 1000 µM
26 | EKEAYAAYAAAAAAA [synthetic peptide #73] | > 1000 µM
27 | EAKEYAAYAAAAAAA [synthetic peptide #74] | > 1000 µM
28 | EAKAYAAYAAAAAAA [synthetic peptide #75] | > 1000 µM
29 | AAAEYAAYKAAAAAA [synthetic peptide #76] | > 1000 µM
30 | AAEKYAAYKAAAAAA [synthetic peptide #77] | > 1000 µM
31 | AKEAYAAYKAAAAAA [synthetic peptide #78] | > 1000 µM
32 | AEAKYAAYKAAAAAA [synthetic peptide #79] | > 1000 µM
33 | AEEAYAAYKAAAAAA [synthetic peptide #80] | > 1000 µM
34 | AKAEYAAYKAAAAAA [synthetic peptide #81] | > 1000 µM
35 | AKEEYAAYKAAAAAA [synthetic peptide #82] | > 1000 µM
36 | AEEKYAAYKAAAAAA [synthetic peptide #83] | > 1000 µM
37 | AAKEYAAYKAAAAAA [synthetic peptide #84] | > 1000 µM
38 | EAAKYAAYKAAAAAA [synthetic peptide #85] | > 1000 µM

Row | Binder | IC50
39 | EAKAYAAYKAAAAAA [synthetic peptide #86] | > 1000 µM
40 | EKAAYAAYKAAAAAA [synthetic peptide #87] | > 1000 µM
41 | EAEAYAAYKAAAAAA [synthetic peptide #88] | > 1000 µM
42 | EAAEYAAYKAAAAAA [synthetic peptide #89] | > 1000 µM
43 | EEAAYAAYKAAAAAA [synthetic peptide #90] | > 1000 µM
44 | EEAKYAAYKAAAAAA [synthetic peptide #91] | > 1000 µM
45 | EKEAYAAYKAAAAAA [synthetic peptide #92] | > 1000 µM
46 | EEKAYAAAAAAAAAA [synthetic peptide #105] | > 1000 µM
47 | AAEKVAAAAAAAAAA [synthetic peptide #114] | > 1000 µM
48 | AAAKYAAAAAAAAAA [synthetic peptide #115] | > 1000 µM
49 | AAAKVAAAAAAAAAA [synthetic peptide #116] | > 1000 µM
50 | AAEAYAAAAAAAAAA [synthetic peptide #117] | > 1000 µM
51 | AAEAVAAAAAAAAAA [synthetic peptide #118] | > 1000 µM
52 | AAEKAAAAAAAAAAA [synthetic peptide #119] | > 1000 µM
53 | AKAAAAEYAAAAAAA [synthetic peptide #51] | > 1000 µM
54 | AAAEYKAYAAAAAAA [synthetic peptide #70] | > 1000 µM
55 | AAEEYKAYAAAAAAA [synthetic peptide #61] | > 1000 µM
56 | AEAEYKAYAAAAAAA [synthetic peptide #66] | > 1000 µM

Biological target: HLA-DR2 (DRB1*1501) on antigen presenting cells (MGAR, L466) (human)
Assay: cell-based or functional assay

Row | Binder | Inhibition of IL-2 production (%), Hy1B
57 | AAEKYAAYAAAAAAA [synthetic peptide #55] | 30%
58 | AKKEYAAAAAAAAAA [synthetic peptide #37] | 5%
59 | AKEEYAAAAAAAAAA [synthetic peptide #38] | 17%
60 | AKEAYAAAAAAAAAA [synthetic peptide #39] | 32%
61 | AEKEYAAAAAAAAAA [synthetic peptide #40] | 22%
62 | EKKAYAAAAAAAAAA [synthetic peptide #41] | 7%
63 | EKAAYAAAAAAAAAA [synthetic peptide #44] | 0%
64 | EKEAAAAYAAAAAAA [synthetic peptide #46] | 0%
65 | KEKAAAAYAAAAAAA [synthetic peptide #47] | 13%
66 | AKAEAAAYAAAAAAA [synthetic peptide #48] | 27%
67 | AEKAAAAYAAAAAAA [synthetic peptide #49] | 36%
68 | AEKKYAAYAAAAAAA [synthetic peptide #54] | 38%
69 | AEEKYAAYAAAAAAA [synthetic peptide #56] | 16%
70 | AKEAYAAYAAAAAAA [synthetic peptide #57] | 0%
71 | AAKEYAAYAAAAAAA [synthetic peptide #58] | 16%
72 | AKAEYAAYAAAAAAA [synthetic peptide #59] | 29%
73 | AEAKYAAYAAAAAAA [synthetic peptide #60] | 0%
74 | AKEEYAAYAAAAAAA [synthetic peptide #62] | 22%
75 | AKEKYAAYAAAAAAA [synthetic peptide #63] | 29%

Row | Binder | Inhibition of IL-2 production (%), Hy1B
76 | AAKAYEAYAAAAAAA [synthetic peptide #65] | 22%
77 | AEAKYEAYAAAAAAA [synthetic peptide #67] | 41%
78 | AAKKYEAYAAAAAAA [synthetic peptide #68] | 41%
79 | AAEKYEAYAAAAAAA [synthetic peptide #69] | 45%
80 | EAEKYAAYAAAAAAA [synthetic peptide #71] | 25%
81 | EKAEYAAYAAAAAAA [synthetic peptide #72] | 39%
82 | EKEAYAAYAAAAAAA [synthetic peptide #73] | 23%
83 | EAKEYAAYAAAAAAA [synthetic peptide #74] | 22%
84 | EAKAYAAYAAAAAAA [synthetic peptide #75] | 19%
85 | AAAEYAAYKAAAAAA [synthetic peptide #76] | 52%
86 | AAEKYAAYKAAAAAA [synthetic peptide #77] | 61%
87 | AKEAYAAYKAAAAAA [synthetic peptide #78] | 59%
88 | AEAKYAAYKAAAAAA [synthetic peptide #79] | 50%
89 | AEEAYAAYKAAAAAA [synthetic peptide #80] | 30%
90 | AKAEYAAYKAAAAAA [synthetic peptide #81] | 28%
91 | AKEEYAAYKAAAAAA [synthetic peptide #82] | 47%
92 | AEEKYAAYKAAAAAA [synthetic peptide #83] | 43%
93 | AAKEYAAYKAAAAAA [synthetic peptide #84] | 42%
94 | EAAKYAAYKAAAAAA [synthetic peptide #85] | 25%

Row | Binder | Inhibition of IL-2 production (%), Hy1B
95 | EAKAYAAYKAAAAAA [synthetic peptide #86] | 29%
96 | EKAAYAAYKAAAAAA [synthetic peptide #87] | 40%
97 | EAEAYAAYKAAAAAA [synthetic peptide #88] | 55%
98 | EAAEYAAYKAAAAAA [synthetic peptide #89] | 41%
99 | EEAAYAAYKAAAAAA [synthetic peptide #90] | 22%
100 | EEAKYAAYKAAAAAA [synthetic peptide #91] | 54%
101 | EKEAYAAYKAAAAAA [synthetic peptide #92] | 42%
102 | EEKAYAAAAAAAAAA [synthetic peptide #105] | 36%
103 | AAEKVAAAAAAAAAA [synthetic peptide #114] | 34%
104 | AAAKYAAAAAAAAAA [synthetic peptide #115] | 25%
105 | AAAKVAAAAAAAAAA [synthetic peptide #116] | 30%
106 | AAEAYAAAAAAAAAA [synthetic peptide #117] | 25%
107 | AAEAVAAAAAAAAAA [synthetic peptide #118] | 38%
108 | AAEKAAAAAAAAAAA [synthetic peptide #119] | 26%
109 | AKAAAAEYAAAAAAA [synthetic peptide #51] | 3%
110 | AAAEYKAYAAAAAAA [synthetic peptide #70] | 24%
111 | AAEEYKAYAAAAAAA [synthetic peptide #61] | 35%
112 | AEAEYKAYAAAAAAA [synthetic peptide #66] | 43%
